Experimental data taken from patent US20150315279A1 (CELLERANT THERAPEUTICS, published 2015).
Values belong to the binder of their own block, whether it stands above or below them. No end group written: not given here.

Legend:
[1] = target: T1, ACPep-1 conjugated to KLH (human, also: conjugated to KLH, site and chemistry not given here); assay: ELISA, antigen coated at 2 ug/ml, antibody at 20 ug/ml
T1 construct: Peptide-carrier conjugate; also called ACPep-1-KLH; ACPep-1 conjugated KLH; not shown: Keyhole limpet hemocyanin (KLH) carrier
T1 peptide: VKQKVPAPRYTVELAC
Procedure: (§1) An ELISA was performed to further determine the specificity of monoclonal antibodies 4G9, 12F1, and 42E1. Wells of 96-well plate were coated with the secreted form of IL1RAP, ECD form of IL1RAP, ACPep-1 conjugated to KLH, or unconjugated KLH at 2 ug/ml overnight at 2-8° C. The coated wells were washed with PBS with 0.05% Tween-20, and then blocked with 1% BSA. Purified test antibodies 4G9, 12F1 and 42E1 were diluted to 20 ug/ml, added to wells coated with various proteins, and incubated at RT for 1 hr. Antibody 12G6, which binds to both the ECD and the secreted form of IL1RAP, was added as a control. Mouse IgG1 was also added as an isotype control. After incubation and PBS washes, donkey anti-mouse-HRP polyclonal antibodies were added. Color was developed with TMB substrate after incubation and PBS washes. The reaction was quenched with acid and the plate was read at 450 nm.

[2] = target: T2, secreted form of IL1RAP (recombinant) (human, UniProt Q9NPH3 21-350); assay: ELISA, antigen coated at 2 ug/ml
T2 construct: also called recombinant form of the secreted IL1RAP; soluble IL1RAP
T2 sequence: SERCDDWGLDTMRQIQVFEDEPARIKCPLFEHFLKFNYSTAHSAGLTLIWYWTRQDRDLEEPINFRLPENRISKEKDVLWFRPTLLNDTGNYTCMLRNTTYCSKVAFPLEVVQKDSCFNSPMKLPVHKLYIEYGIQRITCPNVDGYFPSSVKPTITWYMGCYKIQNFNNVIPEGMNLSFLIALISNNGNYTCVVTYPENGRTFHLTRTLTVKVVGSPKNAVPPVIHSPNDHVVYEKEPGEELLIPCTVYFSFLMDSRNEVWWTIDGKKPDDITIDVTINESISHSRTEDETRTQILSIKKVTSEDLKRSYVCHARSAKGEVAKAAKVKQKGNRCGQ
Procedure: as §1

[3] = target: T3, soluble (secreted) form of IL1RAP in normal human serum (human, UniProt Q9NPH3 21-350); assay: ELISA, antigen captured from human serum by goat anti-human IL1RAP polyclonal, serially diluted antibody
T3 construct: Natural protein captured from human serum; also called IL1RAP from NHS; natural secreted form of IL1RAP in human serum
T3 sequence: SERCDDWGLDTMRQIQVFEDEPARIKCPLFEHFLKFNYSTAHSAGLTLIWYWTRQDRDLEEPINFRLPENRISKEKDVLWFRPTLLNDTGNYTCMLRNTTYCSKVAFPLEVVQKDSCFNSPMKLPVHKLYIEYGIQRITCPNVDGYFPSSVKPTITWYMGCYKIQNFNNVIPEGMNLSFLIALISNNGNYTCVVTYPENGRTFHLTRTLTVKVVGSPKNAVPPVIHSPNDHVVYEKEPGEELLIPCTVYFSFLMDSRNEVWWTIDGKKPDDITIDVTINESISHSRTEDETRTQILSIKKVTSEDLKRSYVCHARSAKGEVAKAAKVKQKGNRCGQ
Source text: (§2) The binding specificity of purified 4B6 was confirmed by ELISA assays described below. Wells of 96-well plate were coated with goat-anti-human IL1RAP polyclonal antibodies to capture various forms of IL1RAP. Forms of IL1RAP captured were (a) ECD form of IL1RAP, (b) the secreted form IL1RAP, and (c) human serum containing the secreted form of IL1RAP. Each captured form was then reacted with serially diluted tested antibody 4B6, control antibody 12G6, or a mouse IgG1 isotype control antibody. After incubation and washing, wells were reacted with secondary donkey-anti-mouse-HRP polyclonal antibodies. Color was developed with TMB substrate after incubation and PBS washes.

[4] = target: T2, secreted form of IL1RAP (recombinant); assay: ELISA, antigen captured by goat anti-human IL1RAP polyclonal, serially diluted antibody
Source text: as §2

[5] = target: T4, human interleukin 1 receptor accessory protein, membrane-bound (receptor) form on cells (human, UniProt Q9NPH3 21-570); assay: flow cytometry on BMMC or PBMC of AML patients, 1F5 at 2 µg/mL
T4 construct: also called IL1RAP; receptor IL1RAP
T4 sequence: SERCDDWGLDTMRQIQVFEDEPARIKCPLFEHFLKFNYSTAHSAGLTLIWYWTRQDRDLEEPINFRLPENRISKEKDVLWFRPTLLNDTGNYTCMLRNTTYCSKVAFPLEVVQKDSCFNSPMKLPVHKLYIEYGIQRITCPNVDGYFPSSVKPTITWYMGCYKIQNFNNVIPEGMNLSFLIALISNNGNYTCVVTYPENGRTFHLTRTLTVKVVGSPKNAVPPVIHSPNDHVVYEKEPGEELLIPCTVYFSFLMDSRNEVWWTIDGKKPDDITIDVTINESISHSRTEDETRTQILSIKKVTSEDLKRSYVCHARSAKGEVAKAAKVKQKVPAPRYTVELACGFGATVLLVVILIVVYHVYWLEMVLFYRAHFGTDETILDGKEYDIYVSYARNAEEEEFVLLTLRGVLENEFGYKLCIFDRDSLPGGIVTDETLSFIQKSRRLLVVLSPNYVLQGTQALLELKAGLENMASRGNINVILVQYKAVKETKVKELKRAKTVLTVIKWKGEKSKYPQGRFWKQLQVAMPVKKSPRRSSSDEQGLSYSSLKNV
Procedure: Bone Marrow-Derived […] (BMMC) or Peripheral Blood Mononuclear Cells (PBMC) were isolated by Ficoll separation (GE Healthcare) from bone marrow aspirate or whole blood respectively of AML patients. Cells were resuspended in staining solution (HBSS, 1% BSA, 1 mM EDTA) to 2×10⁶ cells/mL and blocked with mouse and rat IgG prior to staining. Unconjugated IgG2a or 1F5 antibodies were added to each tube to a final concentration of 2 μg/mL. 50 μL of the cell solution was added to each tube and incubated on ice for 30 min (each stage of incubation was 30 min). Cells were washed with staining solution and resuspended in 100 μL of staining solution with a […] concentration of anti-mouse-PE secondary. Cells were washed with staining solution and resuspended in 100 μL of staining solution with 5 μL each of CD34-FITC, CD45-APC and CD38-APC (BD). Cells were washed with staining solution and resuspended in 200 μL. Cells were immediately applied to flow cytometry for analysis.

[6] = target: T5, peptide AC Pep-1 (human); assay: ELISA of hybridoma supernatant on peptide AC Pep-1
T5 peptide: VKQKVPAPRYTVELAC

[7] = target: T3, soluble (secreted) form of IL1RAP in …; assay: sandwich ELISA with normal human serum
[8] = target: T6, extracellular domain (ECD) form of IL1RAP (human, UniProt Q9NPH3 21-367); assay: ELISA, IL1RAP captured by goat anti-human IL1RAP polyclonal, 1F5 at 1 µg/ml
T6 construct: also called ECD of IL1RAP; ECD IL1RAP
T6 sequence: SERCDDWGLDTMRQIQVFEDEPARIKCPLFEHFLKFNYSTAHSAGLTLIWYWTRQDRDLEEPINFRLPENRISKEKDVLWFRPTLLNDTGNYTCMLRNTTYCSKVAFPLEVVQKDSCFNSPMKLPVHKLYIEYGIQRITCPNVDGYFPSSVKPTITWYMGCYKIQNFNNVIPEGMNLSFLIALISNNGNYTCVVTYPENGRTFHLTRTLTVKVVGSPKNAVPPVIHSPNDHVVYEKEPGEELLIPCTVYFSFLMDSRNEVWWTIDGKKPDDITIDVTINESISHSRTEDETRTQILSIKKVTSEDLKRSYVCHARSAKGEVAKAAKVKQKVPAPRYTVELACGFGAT
Procedure: Wells of a 96-well ELISA plate were coated with goat-anti-human IL1RAP polyclonal at 0.5 μg/ml and incubated overnight at 2-8° C. The coated wells were washed with PBS with 0.05% Tween-20, then blocked with 1% BSA. IL1RAP was added into the wells at 0.5, 1, or 2 μg/ml followed by an incubation and a 3×PBS wash. After the 3×PBS wash, antibody 1F5 was added to the wells at 1 μg/ml followed by an incubation and a 3×PBS wash. After the 3×PBS wash, donkey-anti-mouse-HRP was added to the wells at a 1:50,000 dilution followed by an incubation and a 3×PBS wash. Color was developed with TMB substrate. The reaction was quenched with acid and the plate was read at 450 nm.

[9] = target: T7, 12-mer peptide VPAPRYTVELAC (human); assay: ELISA, peptide adsorbed on the plate
T7 construct: also called unconjugated peptide
T7 peptide: VPAPRYTVELAC
Procedure: Peptide was conjugated to Keyhole Limpet Hemocyanin (KLH) using methods known in the art. Unconjugated peptide, KLH-peptide, and KLH were then adsorbed onto different wells of a MAXIBIND 96-well ELISA plate, which was then blocked with 1% BSA. Anti-IL1RAP antibody 1F5 was then added to the wells followed by an incubation and a wash. After the wash, donkey-anti-mouse-HRP was added to the wells at a 1:50,000 dilution followed by an incubation and a wash. Color was developed with TMB substrate. The reaction was quenched with acid and the plate was read at 450 nm.

- binding result [1]: binds
- binding result [2]: no binding (tested: 20 ug/ml)
B1: monoclonal antibody 4G9 (antibody, V domains shown)
VH: QVQLQQSGTELVRPGASVKLSCKASGYTFTDYEMHWVKQTPVHGLEWIGAIDPGTGGIAYNQKFKGKATLTADKSSSTAYMELRSLTSEDSAVYYCTLYDYDLAYWGQGTLVTVSA
VL: DVLMTQTPLSLPVSLGDQASISCRSSQSIVHSNGNTYLEWFLQKPGQSPKLLIYTVSNRFSGVPDRFSGSGSGTDFTLKISRVEAEDLGVYYCFQGSHVPPTFGGGTKLEIK

- binding result [3]: no binding
- binding result [4]: no binding
B2: monoclonal antibody 4B6 (antibody, V domains shown)
VH: EVKLVESGGGLVKPGGSLKLSCAASGFTFRTYAMSWVRQTPEKRLEWVASISSRGRIYYPDSVKGRFTISRDNARNILYLQMSSLRSEDTAMYYCARDGDYGSSYDYWGQGTTLTVSS
VL: DIQMTQSPSSLSASLGERVSLTCRASQDIGSSLNWLQQEPDGTIKRLIYATSSLDSGVPKRFSGSRSGSDYSLTISSLESEDFVDYYCLQYASSPWTFGGGTKLEIK

- binding result [5]: binds
- binding result [6]: binds
- binding result [7]: no binding
- binding result [8]: binds
- binding result [9]: binds
B3: anti-receptor IL1RAP antibody clone 1F5 (antibody, V domains shown)
VH: EVKLVESGGGLVKPGASLKLSCAASGFTFSNYGMSWVRQTSDKRLEWVASISSGGGSTYYPDNVKGRFTISRENAKNTLYLQMSSLKSEDTALYYCARVLPGRWAMDYWGQGSSVTVSS
VL: DVVMTQTPLSLPVSLGDQASISCRSSQSLVHINGNTYLHWYLQKPGQSPKLLIYKVSNRFSGVPDRFSGSGSGTDFTLKISRVEAEDLGVYFCSQSTHVPWTFGGGTKLEIK
notes: Mouse monoclonal antibody from a hybridoma (A/J mice immunised with AC Pep-1-KLH); IgG2a was used as its control in flow cytometry; Hybridoma supernatants were used in some assays; also called anti-IL1RAP antibody 1F5; 1F5 supernatants
